B1: γ-RSD (γ-resorcylate decarboxylase) (Polaromonas sp. JS666) (protein)
chain: MNGKIALEEHFATEETLMDSAGFVPDKDWPELRSRLLDIQDRRVRLMDEHGIETMILSLNAPAVQAIADSTRANETARRANDFLAEQVAKQPTRFRGFAALPMQDPELAARELERCVKELGFVGALVNGFSQDNRSAVPLYYDMAQYWPFWETVQALDVPFYLHPRNPLPSDARIYDGHAWLLGPTWAFGQETAVHALRLMGSGLFDKYPALKIILGHMGEGLPYSMWRIDHRNAWIKTTPKYPAKRKIVDYFNENFYLTTSGNFRTQTLIDAILEIGADRILFSTDWPFENIDHAADWFENTSISEADRKKIGWGNAQNLFKLNR

Tests used:
[1] = target: γ-Resorcylate decarboxylase (γ-RSD) from Polaromonas sp. JS666, His6-tagged (Polaromonas sp. JS666); test: crystal structure
[2] = substrate: Cc1cc(O)c(C(=O)O)c(O)c1; test: purified protein; type: biochemical, Polaromonas sp. JS666; conditions: 50 mM HEPES pH 7.0, 30 °C
[3] = substrate: O=C(O)c1c(O)cccc1O; test: purified protein; type: biochemical, Polaromonas sp. JS666; conditions: 50 mM HEPES pH 7.0, 30 °C
[4] = substrate: O=C(O)c1c(O)cc(O)cc1O; test: purified protein; type: biochemical, Polaromonas sp. JS666; conditions: 50 mM HEPES pH 7.0, 30 °C
[5] = substrate: O=C(O)c1cccc(O)c1O; test: purified protein; type: biochemical, Polaromonas sp. JS666; conditions: 50 mM HEPES pH 7.0, 30 °C

Row | stoichiometry N [1] | Molecule | Km [2] [µM] | kcat [2] [s⁻¹] | kcat/Km [2] [M⁻¹ s⁻¹] | Km [3] [µM] | kcat [3] [s⁻¹] | kcat/Km [3] [M⁻¹ s⁻¹] | Km [4] [µM] | kcat [4] [s⁻¹] | kcat/Km [4] [M⁻¹ s⁻¹] | Km [5] [µM] | kcat [5] [s⁻¹] | kcat/Km [5] [M⁻¹ s⁻¹]
1 | 4 | γ-Resorcylate decarboxylase (γ-RSD) from Polaromonas sp. JS666, His6-tagged (enzyme) |  |  |  |  |  |  |  |  |  |  |  | 
2 |  | B1 | 79 ± 6 | 0.38 ± 0.01 | 4800 ± 400 | 32 ± 2 | 0.44 ± 0.01 | 13000 ± 1000 | 48 ± 1 | 0.18 ± 0.01 | 3800 ± 300 | 111 ± 11 | 0.47 ± 0.02 | 4200 ± 500

Reference: paper PMC5988983
